{"source": "paper PMC8274607", "about": "“A Derivative of the D5 Monoclonal Antibody That Targets the gp41 N-Heptad Repeat of HIV-1 with Broad Tier-2-Neutralizing Activity” (Journal of Virology, 2021)", "binders": {"B1": {"name": "D5_AR Fab (Fab, V domains shown)", "VH": "QVQLVQSGAEVRKPGASVKVSCKASGDTFSSYAISWVRQAPGQGLEWMGSIIPLFGTAAYAQKFQGRVTITADESTSTAYMELSSLRSEDTAIYYCARDNPTFGAADSWGKGTLVTVSS", "VL": "DIQMTQSPSTLSASIGDRVTITCRASEGIYHWLAWYQQKPGKAPKLLIYKASSLASGAPSRFSGSGSGTDFTLTISSLQPDDFATYYCQQYSNYPLTFGGGTKLEIK", "notes": "also called D5_H011_L0; source: Expi293F, transfected, purified (protein G agarose, SEC)"}}, "target": "T1, covalent biotinylated CCIZN17 (synthetic IZ coiled coil fused to HIV-1 …)", "T1 construct": "also called NHR mimetic; mimetic of the NHR trimer", "assay": "BLI; biotinylated CCIZN17 (200 nM) loaded on streptavidin biosensors to 0.4 nm, Octet RED96; Fab in solution at known concentrations, 4 min association, 4 min dissociation; PBS pH 7.4 with 0.1% BSA and 0.05% Tween 20", "details": "both partners purified"}
{"binder": "B1", "values": [{"measurement": "Kd", "value": 1.6, "unit": "nM"}]}
